Results on one molecule are retold here after patent US5770384, “Method for determining compound interaction with E2 binding proteins” (New England Medical Center Hospitals, Inc, dated 1998).

This assay has as its target BPV-1 E2 protein, wild type, full length (amino acids 1 to 410) (bovine papillomavirus (BPV-1), UniProt P03122). The assay is described as follows: alternative two hybrid assay in yeast, LexA/LacZ reporter pSH18-34, GAL/XGAL plate.

B1: LexA DBD alone (YEplac181GLexA202) (other)
chain: MKALTARQQEVFDLIRDHISQTGMPPTRAEIAQRLGFRSPNAAEEHLKALARKGVIEIVSGASRGIRLLQEEEEGLPLVGRVAAGEPLLAQQHIEGHYQVDPSLFKPNADFLLRVSGMSMKDIGIMDGDLLAVHKTQDVRNGQVVVARIDDEVTVKRLKKQGNKVELLPENSEFKPIVVDLRQQSFTIEGLAVGVIRNGDWL
On to B1, for which the binding result was “no binding”.
